Earlier results on 1 substance are cited in article PMC5331467.

The target in this data set is Tyr7 (UniProt position 7, SHHWGYGKHNG). The experiment in a line: NMR (jointly with neutron crystallography).

By pKa is commonly meant the pH at which an ionisable group is half protonated. Take “Carbonic anhydrase II (CA-II) (Homo sapiens)”: the pKa is reported as 7.1.
